Experimental data reported in the supplement of paper PMC11908140.

B1: library; numbered along this chain (parent)
chain: MRKPRAAVGSGHRKQAASQEGRQKHAKNNSQAKPSACDGLARQPEEVVLQASVSSYHLFRDVAEVTAFRGSLLSWYDQEKRDLPWRRRAEDEMDLDRRAYAVWVSEVMLQQTQVATVINYYTGWMQKWPTLQDLASASLEEVNQLWAGLGYYSRGRRLQEGARKVVEELGGHMPRTAETLQQLLPGVGRYTAGAIASIAFGQATGVVDGNVARVLCRVRAIGADPSSTLVSQQLWGLAQQLVDPARPGDFNQAAMELGATVCTPQRPLCSQCPVESLCRARQRVEQEQLLASGSLSGSPDVEECAPNTGQCHLCLPPSEPWDQTLGVVNFPRKASRKPPREESSATCVLEQPGALGAQILLVQRPNSGLLAGLWEFPSVTWEPSEQLQRKALLQELQRWAGPLPATHLRHLGEVVHTFSHIKLTYQVYGLALEGQTPVTTVPPGARWLTQEEFHTAAVSTAMKKVFRVYQGQQPGTCMGSKRSQVSSPCSRKKPRMGQQVLDNFFRSHISTDAHSLNSAAQ

Variants of: B1
Test: 8OG:A repair function score (normalized; synonymous = 0, nonsense = -1) (normalized log-likelihood score); higher = more repair activity (WT-like)
Conditions: with 8OG:A DNA repair reporter (GFP) in HEK-293 MUTYH KO cells
Description: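 Saturation mutagenesis (NNN codon scan) of the MUTYH cDNA (521-aa nuclear isoform NM_001048174.1 / NP_001041639), stably expressed under doxycycline induction in HEK-293 MUTYH knockout cells. Cells were co-transfected with an 8OG:A-bearing GFP repair reporter plus mCherry and sorted 72 h later into GFP+ and GFP− bins, three replicates per tile. The Rosace log2 enrichment (GFP+ vs GFP−) was converted per tile to a normalized function score with synonymous variants centered at 0 and nonsense variants (codons 1-471) at -1; low-abundance variants were removed.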

8OG:A repair function score of substitutions, site by site:
T122: Y -0.13 | M -0.388 | Q 0.0683 | W -0.16 | A -0.000881 | V -0.0114 | G -0.143 | L -0.0652 | S -0.0596 | H 0.0576 | K -0.158 | P 0.0277 | F -0.0723 | R -0.0157 | N 0.119 | D 0.0468 | I 0.0511 | E -0.0848 | C -0.0157
Q126: D 0.00176 | C -0.239 | E 0.0677 | N 0.0504 | F 0.0114 | I -0.00505 | S 0.0362 | K 0.0876 | M 0.0168 | W -0.256 | T 0.049 | R 0.0261 | Y -0.055 | G -0.0912 | P -0.376 | L 0.0989 | A 0.00568 | V -0.0961 | H -0.0777
L134: Y -0.464 | M -0.216 | H -0.607 | N -0.686 | C -0.394 | P -1.26 | R -1.01 | T -0.714 | Q -1.24 | K -0.914 | I -0.101 | S -0.514 | A -0.0633 | E -0.848 | D -1.82 | W -0.665 | V 0.0486 | F -0.116 | G -0.824
P129: N -0.266 | S -0.231 | G -0.263 | L -0.577 | K -0.414 | M -0.298 | R -0.477 | W -0.109 | E -0.084 | C -0.403 | V -0.608 | A -0.267 | Q -0.0447 | T -0.491 | F -0.742 | I -0.53 | H -0.193 | D -0.0868 | Y -0.513
W128: H -0.948 | M -0.374 | I -0.397 | R -0.696 | T -0.721 | C -0.476 | L -0.0988 | V -0.224 | E -0.929 | P -1.23 | F -0.156 | Q -0.844 | Y -0.0875 | K -0.455 | N -0.681 | D -1.27 | A -0.875 | S -0.935 | G -0.819
K127: Y -0.398 | T -0.072 | S -0.0418 | V -0.306 | A -0.303 | F -0.207 | H 0.135 | N -0.0772 | L -0.0156 | D -1.32 | R 0.014 | C 0.0938 | P -0.884 | G -0.408 | I -0.204 | E -0.0486 | W -0.529 | M -0.286 | Q -0.208
Y120: S -0.126 | L -0.231 | V -0.224 | I -0.425 | W -0.465 | A -0.24 | N -0.333 | G -0.347 | R -0.0662 | C -0.227 | D -0.428 | F -0.0973 | H -0.238 | T 0.0371 | P -0.134 | M -0.0214 | E -0.482 | K 0.0493 | Q -0.154
M125: A -0.557 | P -1.2 | G -0.932 | L -0.161 | E -0.577 | I -0.0973 | Y -0.538 | R -0.877 | H -0.401 | C -0.306 | N -0.838 | K -0.523 | Q -0.33 | W -0.408 | S -0.734 | T -0.339 | V -0.308 | F -0.273 | D -0.755
W124: V -0.516 | N -1.01 | C -0.794 | E -1.01 | H -0.678 | S -0.825 | K -0.931 | F 0.00143 | D -0.574 | P -0.593 | Q -0.557 | L -0.378 | M -1.62 | Y -0.973 | G -0.892 | T -0.869 | I -0.714 | A -0.577 | R -1.05
A135: K -0.317 | D -0.636 | P -0.477 | R -0.0784 | S -0.0157 | E -0.996 | Q -0.686 | T -0.165 | L -0.28 | F -0.316 | C -0.244 | M -0.467 | H -0.353 | G -0.074 | W -0.338 | V -0.0536 | Y -0.211 | N -0.227 | I -0.611
T130: D 0.137 | Y -0.392 | H -0.115 | R -0.049 | I -0.27 | K -0.0846 | Q -0.123 | P -0.9 | F -0.197 | N -0.00511 | S 0.107 | G -0.0108 | C -0.578 | M -0.278 | V -0.178 | A -0.214 | E -0.171 | W -0.522 | L -0.336
G123: L 0.0662 | P 0.0736 | K 0.00116 | Q 0.213 | A 0.0469 | D -0.257 | N -0.0109 | R 0.0952 | V 0.0959 | T 0.0116 | C 0.124 | W -0.322 | F -0.0297 | Y -0.191 | I 0.0985 | H -0.0466 | S 0.0793 | M -0.101 | E -0.000943
Y121: F -0.109 | V -0.91 | P -1.26 | C -1.17 | G -1.09 | E -1.92 | R -0.993 | L -0.993 | M -0.933 | H -0.853 | A -0.942 | N -3.31 | W -0.427 | K -1.13 | S -0.866 | T -1.25 | Q -0.765 | I -0.562 | D -0.798
I118: Y -0.223
L131: R -0.798 | G -0.424 | Y -0.228 | I -0.158 | A -0.104 | C -0.139 | S -0.315 | W -1.21 | Q -0.814 | N -0.249 | E -0.608 | V -0.0573 | P -0.153 | K -0.394 | F 0.00215 | D -1.1 | H -0.283 | T -0.0104 | M 0.0751
Q132: P 0.0126 | W -0.228 | A 0.059 | S -0.109 | F -0.327 | T 0.0372 | M -0.0607 | L -0.194 | C -0.154 | K -0.364 | Y -0.125 | N -0.0864 | E -0.0366 | V -0.0799 | H -0.0442 | R 0.00437 | G -0.076 | I -0.0124 | D 0.0351
D133: L -0.0567 | S 0.0612 | Q -0.164 | N 0.0132 | A -0.000201 | C -0.201 | W -0.988 | G 0.0336 | Y -0.727 | K -0.175 | M 0.0651 | T -0.0145 | R -0.0865 | E -0.0313 | P -0.372 | F -0.0791 | V -0.0608 | I -0.308 | H -0.0208
S136: A 0.0607 | E 0.0125 | I -0.0848 | H -0.136 | F -0.278 | G 0.03 | C -0.0713 | D 0.029 | L -0.0288 | K 0.0771
N119: F -0.259 | C -0.0452 | A 0.121 | W -0.704 | T -0.0798 | M -0.216 | D -0.419 | L -0.112 | K -0.0285 | G 0.0963 | H 0.126 | V 0.0134 | R 0.0743 | P -0.0904 | Q -0.00304 | Y -0.361 | E -0.069 | I -0.263 | S -0.294
